Laboratory results: the supplement of paper PMC9112550, “Optimization of the antimicrobial peptide Bac7 by deep mutational scanning” (BMC Biology, 2022)

system: Escherichia coli TOP10; assay: shrunken log2 fold change of peptide-encoding DNA abundance (4.5 h post-induction vs induction); higher = less antimicrobial activity (less host growth inhibition); details: time post-induction: 4.5 h; library: site-saturation at positions 5, 18, 19, 20
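Also: peptides expressed intracellularly from a pBAD plasmid library in pooled LB shake-flask culture, induced with 0.3% L-arabinose, DNA abundance read by NGS, three biological replicates, DESeq2 with apeglm shrinkage.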

| Sequence | shrunken log2 fold change |
| --- | --- |
| RRIRHRPPRLPRPRPRPPNSPRP | -0.201 |
| RRIRHRPPRLPRPRPRPPNWPRP | 0.494 |
| RRIRHRPPRLPRPRPRPPPFPRP | 0.0505 |
| RRIRHRPPRLPRPRPRPPPGPRP | 0.769 |
| RRIRHRPPRLPRPRPRPPQFPRP | 0.0105 |
| RRIRHRPPRLPRPRPRPPQNPRP | 0.613 |
| RRIRHRPPRLPRPRPRPPQYPRP | -0.154 |
| RRIRHRPPRLPRPRPRPPREPRP | 0.204 |
| RRIRHRPPRLPRPRPRPPRSPRP | 0.704 |
| RRIRHRPPRLPRPRPRPPSDPRP | 0.146 |
| RRIRHRPPRLPRPRPRPPSIPRP | -0.165 |
| RRIRHRPPRLPRPRPRPPSRPRP | 0.17 |
| RRIRHRPPRLPRPRPRPPVDPRP | 1.89 |
| RRIRHRPPRLPRPRPRPPVFPRP | 0.612 |
| RRIRHRPPRLPRPRPRPPVSPRP | -0.0862 |
| RRIRHRPPRLPRPRPRPPYGPRP | 0.0267 |
| RRIRHRPPRLPRPRPRPQADPRP | -0.139 |
| RRIRHRPPRLPRPRPRPQCCPRP | -0.00176 |
| RRIRHRPPRLPRPRPRPQCEPRP | -0.122 |
| RRIRHRPPRLPRPRPRPQCTPRP | -0.124 |
| RRIRHRPPRLPRPRPRPQEFPRP | -0.00101 |
| RRIRHRPPRLPRPRPRPQEHPRP | -0.389 |
| RRIRHRPPRLPRPRPRPQESPRP | 0.00355 |
| RRIRHRPPRLPRPRPRPQFDPRP | 0.0132 |
| RRIRHRPPRLPRPRPRPQGCPRP | -0.0592 |

| Sequence | shrunken log2 fold change |
| --- | --- |
| RRIRHRPPRLPRPRPRPQINPRP | -0.827 |
| RRIRHRPPRLPRPRPRPQLAPRP | 0.0733 |
| RRIRHRPPRLPRPRPRPQLCPRP | 0.0716 |
| RRIRHRPPRLPRPRPRPQLPPRP | 0.181 |
| RRIRHRPPRLPRPRPRPQLTPRP | -0.261 |
| RRIRHRPPRLPRPRPRPQLYPRP | -0.238 |
| RRIRHRPPRLPRPRPRPQMIPRP | -0.139 |
| RRIRHRPPRLPRPRPRPQMWPRP | 2.46e-05 |
| RRIRHRPPRLPRPRPRPQNIPRP | -0.269 |
| RRIRHRPPRLPRPRPRPQPMPRP | -0.109 |
| RRIRHRPPRLPRPRPRPQQVPRP | -0.0214 |
| RRIRHRPPRLPRPRPRPQRTPRP | -0.145 |
| RRIRHRPPRLPRPRPRPQSWPRP | 0.0657 |
| RRIRHRPPRLPRPRPRPQTPPRP | 0.374 |
| RRIRHRPPRLPRPRPRPQVAPRP | 0.0753 |
| RRIRHRPPRLPRPRPRPQWKPRP | -0.0774 |
| RRIRHRPPRLPRPRPRPRADPRP | 0.185 |
| RRIRHRPPRLPRPRPRPRANPRP | 0.177 |
| RRIRHRPPRLPRPRPRPRAQPRP | 0.0972 |
| RRIRHRPPRLPRPRPRPRCGPRP | 0.202 |
| RRIRHRPPRLPRPRPRPRDGPRP | 0.84 |
| RRIRHRPPRLPRPRPRPREQPRP | 0.628 |
| RRIRHRPPRLPRPRPRPRFCPRP | 0.0432 |
| RRIRHRPPRLPRPRPRPRGPPRP | 0.171 |
| RRIRHRPPRLPRPRPRPRHRPRP | -0.029 |

| Sequence | shrunken log2 fold change |
| --- | --- |
| RRIRHRPPRLPRPRPRPRIHPRP | -0.473 |
| RRIRHRPPRLPRPRPRPRKTPRP | 0.00946 |
| RRIRHRPPRLPRPRPRPRKWPRP | -0.0137 |
| RRIRHRPPRLPRPRPRPRLKPRP | -0.0285 |
| RRIRHRPPRLPRPRPRPRMQPRP | 0.183 |
| RRIRHRPPRLPRPRPRPRPSPRP | 0.466 |
| RRIRHRPPRLPRPRPRPRTEPRP | 0.218 |
| RRIRHRPPRLPRPRPRPRVDPRP | 0.0681 |
| RRIRHRPPRLPRPRPRPSALPRP | -0.243 |
| RRIRHRPPRLPRPRPRPSARPRP | -0.223 |
| RRIRHRPPRLPRPRPRPSDLPRP | -0.441 |
| RRIRHRPPRLPRPRPRPSENPRP | -0.096 |
| RRIRHRPPRLPRPRPRPSFAPRP | 0.0263 |
| RRIRHRPPRLPRPRPRPSGWPRP | -0.291 |
| RRIRHRPPRLPRPRPRPSKRPRP | 0.0594 |
| RRIRHRPPRLPRPRPRPSKSPRP | -0.143 |
| RRIRHRPPRLPRPRPRPSLAPRP | -0.219 |
| RRIRHRPPRLPRPRPRPSLCPRP | -0.0468 |
| RRIRHRPPRLPRPRPRPSMIPRP | -0.23 |
| RRIRHRPPRLPRPRPRPSMNPRP | -0.253 |
| RRIRHRPPRLPRPRPRPSMQPRP | -0.124 |
| RRIRHRPPRLPRPRPRPSNPPRP | -0.219 |
| RRIRHRPPRLPRPRPRPSPEPRP | -0.0554 |
| RRIRHRPPRLPRPRPRPSPKPRP | -0.0976 |
| RRIRHRPPRLPRPRPRPSRVPRP | -0.0634 |
